These results are taken from patent US20090317849.

Data set [1] deals with recombinant Mep45-kinase matrix fusion protein (PKC matrix).
The target in data set [2] is BSA (Bovine Serum Albumin) (UniProt P02769).
Data set [3] concerns T1, PKC (Protein Kinase C) matrix AAKIQASFRGHMARKK
T1 sequence: AAKIQASFRGHMARKK

Data set [4] relates to T2, cdc2-PK (cdc2 Protein Kinase) matrix PKTPKKAKKL
T2 sequence: PKTPKKAKKL

The subject of data set [5] is recombinant Mep45-kinase matrix fusion protein (cdc2-PK matrix).

Sequence of BSA (Bovine Serum Albumin) (P02769 25-607): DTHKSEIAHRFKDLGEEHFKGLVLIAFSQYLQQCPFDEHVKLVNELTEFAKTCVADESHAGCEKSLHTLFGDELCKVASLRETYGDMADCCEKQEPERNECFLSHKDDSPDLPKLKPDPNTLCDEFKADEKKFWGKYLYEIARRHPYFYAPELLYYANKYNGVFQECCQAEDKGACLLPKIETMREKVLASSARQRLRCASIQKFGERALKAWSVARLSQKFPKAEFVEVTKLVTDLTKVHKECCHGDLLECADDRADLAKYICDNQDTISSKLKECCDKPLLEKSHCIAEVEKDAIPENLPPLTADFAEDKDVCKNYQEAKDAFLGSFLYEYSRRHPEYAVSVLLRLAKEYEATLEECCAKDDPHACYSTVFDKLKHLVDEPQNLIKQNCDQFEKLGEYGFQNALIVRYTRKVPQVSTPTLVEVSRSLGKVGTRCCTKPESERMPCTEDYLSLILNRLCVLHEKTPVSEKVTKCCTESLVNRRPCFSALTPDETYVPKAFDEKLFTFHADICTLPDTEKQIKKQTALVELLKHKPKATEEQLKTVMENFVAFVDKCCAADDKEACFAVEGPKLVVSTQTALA

With PKC (Protein Kinase C), the “phosphorylation on chip with [gamma-32P]ATP, X-ray film or X-ray fluorescence spectrometer” value in data set [1] is “clear signal was detected on the spot of ... Mep45 fusion matrix (FIG. 5B)”; in data set [2] it was “no signal was detected on the spot of BSA (negative control)”; in data set [3], “clear signal was detected on the spot of AAKIQASFRGHMARKK matrix (FIG. 5A)”.

Consider cdc2 protein kinase, for which the figures for the “phosphorylation on chip with [gamma-32P]ATP, X-ray film or X-ray fluorescence spectrometer” value in data set [4], in data set [2] and in data set [5] were “clear signal was detected on the spot of PKTPKKAKKL matrix (FIG. 4A)”, “no signal was detected on the spot of BSA (negative control)” and “clear signal was detected on the spot of ... Mep45 fusion matrix (FIG. 4B)”, respectively.
